T1: human chemokine receptor CCR7 (human, UniProt P32248 25-378)
T1 sequence: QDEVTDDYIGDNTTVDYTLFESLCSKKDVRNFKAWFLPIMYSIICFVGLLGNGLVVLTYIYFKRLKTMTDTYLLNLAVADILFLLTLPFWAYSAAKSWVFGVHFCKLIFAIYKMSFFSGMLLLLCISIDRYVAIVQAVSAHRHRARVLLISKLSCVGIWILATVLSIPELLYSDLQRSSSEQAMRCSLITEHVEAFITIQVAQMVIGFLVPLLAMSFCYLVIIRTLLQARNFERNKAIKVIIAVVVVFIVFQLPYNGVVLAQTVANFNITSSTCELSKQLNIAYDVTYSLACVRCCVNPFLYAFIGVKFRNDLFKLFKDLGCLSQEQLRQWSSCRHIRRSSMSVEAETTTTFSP

B1: MSM R735 in IgG4 format (antibody)
heavy: EVQLLESGGGLVQPGGSLRLSCAASGFTFSNYNMHWVRQAPGKGLEWVSGIGPRRGRTYYADSVKGRFTISRDNSKNTLYLQMNSLRAEDTAVYYCARSYAYQYRGLDYWGQGTLVTVSSASTKGPSVFPLAPCSRSTSESTAALGCLVKDYFPEPVTVSWNSGALTSGVHTFPAVLQSSGLYSLSSVVTVPSSSLGTKTYTCNVDHKPSNTKVDKRVESKYGPPCPSCPAPEFLGGPSVFLFPPKPKDTLMISRTPEVTCVVVDVSQEDPEVQFNWYVDGVEVHNAKTKPREEQFNSTYRVVSVLTVLHQDWLNGKEYKCKVSNKGLPSSIEKTISKAKGQPREPQVYTLPPSQEEMTKNQVSLTCLVKGFYPSDIAVEWESNGQPENNYKTTPPVLDSDGSFFLYSRLTVDKSRWQEGNVFSCSVMHEALHNHYTQKSLSLSPGK
light: EIVLTQSPGTLSLSPGERATLSCRASQSVSSSYLAWYQQKPGQAPRLLIYGASSRATGIPDRFSGSGSGTDFTLTISRLEPEDFAVYYCQQGSPVTFGQGTKVEIKRTVAAPSVFIFPPSDEQLKSGTASVVCLLNNFYPREAKVQWKVDNALQSGNSQESVTEQDSKDSTYSLSSTLTLSKADYEKHKVYACEVTHQGLSSPVTKSFNRGEC
notes: also called IgG4 formatted MSM R735
B2: MSM-R707BI (fully human anti-human CCR7 antibody, IgG1) (antibody, V domains shown)
VH: EVQLLESGGGLVQPGGSLRLSCAASGFTFSNYAIHWVRQAPGKGLEWVSAITPRGGYTYYADSVKGRFTISRDNSKNTLYLQMNSLRAEDTAVYYCARGLTISYTPGFDYWGQGTLVTVSS
VL: not shown
notes: IgG1 format; HC CDR3 derivative of MSM-R707; also called MSM-R7707BI; R707B1

Columns and labels:
[1] = molecular target: T1, human chemokine receptor CCR7; experiment: cell-based or functional assay
[2] = molecular target: T1, human chemokine receptor CCR7; experiment: flow cytometry titration on CCR7 over-expressing cells (direct binding, printed as IC50)
[3] = molecular target: T1, human chemokine receptor CCR7; experiment: flow cytometry titration, CHO-human CCR7 cells, anti-human Fc-PE
Experimental: The affinity of IgG1 antibodies to human CCR7 was evaluated by measuring mean fluorescence value (MFI) of cells expressing CCR7 in the presence of varying concentration of antibody in question, upon staining of bound to the cells antibodies with a commercial anti-human antibody-PE conjugate. The data of such experiments are depicted in FIGS. 9, 10, and 11. In these experiments binding of some antibodies to parental cells or cells expressing mouse CCR7 was also quantitatively characterized by obtaining EC₅₀ value (a concentration of IgG1 at which half-maximum MFI is achieved) for each curve using the SoftMaxPro5 program.

[4] = molecular target: T1, human chemokine receptor CCR7; experiment: flow cytometry titration, CHO cells expressing human CCR7

Binder | IC50 of inhibition of CCL19-induced Ca-flux in cells expressing human CCR7 [1] [nM] | IC50 [2] [nM] | EC50 [3] [nM] | EC50 [4] [nM]
B1 | 128 | 2.5 to 5.3 | – | –
B2 | – | – | 5.5 | 6.7
